Experimental data: publication PMC3230568 (2011)

Biological target: p53 DBD 94-288 (Homo sapiens, UniProt P04637)
Assay: atomic force spectroscopy

Chain of p53 DBD 94-288 (P04637 94-288): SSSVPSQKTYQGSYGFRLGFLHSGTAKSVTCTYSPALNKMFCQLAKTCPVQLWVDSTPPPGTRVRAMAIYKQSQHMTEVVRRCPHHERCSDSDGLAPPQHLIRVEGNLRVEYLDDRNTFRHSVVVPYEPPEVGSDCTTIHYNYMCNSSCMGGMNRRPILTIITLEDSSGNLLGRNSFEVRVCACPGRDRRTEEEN

B1: p28 (azurin fragment, Cys-p28) 50-77 (peptide)
chain: TVNLSHPGNLPKNVMGHNWVLSTAADMQ
Kd: 630 nM
